Data as given in US20220411483A1 (Chugai, published 2022).
Residue numbers refer to the chain shown, from its start.

T1: FcγRIIb extracellular domain with C-terminal His tag (human, UniProt P31994 43-217)
T1 construct: extracellular domain; also called FcgRIIb; not shown: His tag at the C terminus
T1 sequence (looked up): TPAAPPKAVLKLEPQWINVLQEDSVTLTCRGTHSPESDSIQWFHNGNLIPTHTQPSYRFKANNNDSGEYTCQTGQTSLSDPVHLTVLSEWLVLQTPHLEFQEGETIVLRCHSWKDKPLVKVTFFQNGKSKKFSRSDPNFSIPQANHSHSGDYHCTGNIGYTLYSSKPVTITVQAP

T2: FcγRIIa R type extracellular domain with C-terminal His tag (human, UniProt P12318 34-217)
T2 construct: extracellular domain; also called FcgRIIaR; not shown: His tag at the C terminus
T2 sequence (looked up): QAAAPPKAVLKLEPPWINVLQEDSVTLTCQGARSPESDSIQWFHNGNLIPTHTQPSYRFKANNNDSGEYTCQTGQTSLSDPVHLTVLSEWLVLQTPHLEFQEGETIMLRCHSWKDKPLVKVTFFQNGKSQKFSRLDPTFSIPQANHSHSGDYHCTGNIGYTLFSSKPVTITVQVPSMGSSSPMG

T3: FcgRIIb (human, UniProt P31994 43-217)
T3 construct: extracellular domain; also called FcγRIIb
T3 sequence (looked up): T1 sequence (looked up)

T4: FcgRIIaR (human, UniProt P12318 34-217)
T4 construct: extracellular domain; also called FcγRIIa R type; FcγRIIa (R type)
T4 sequence (looked up): T2 sequence (looked up)

B1: IL6R-BP262/IL6R-L (antibody, human IgG1, kappa, name in EU numbering)
heavy: QVQLQESGPGLVKPSETLSLTCAVSGHSISHDHAWSWVRQPPGEGLEWIGFISYSGITNYNPSLQGRVTISRDNSKNTLYLQMNSLRAEDTAVYYCARSLARTTAMDYWGEGTLVTVSSASTKGPSVFPLAPSSKSTSGGTAALGCLVKDYFPEPVTVSWNSGALTSGVHTFPAVLQSSGLYSLSSVVTVPSSSLGTQTYICNVNHKPSNTKVDKKVEPKSCDKTHTCPPCPAPELLGDDSVFLFPPKPKDTLMISRTPEVTCVVVDVSEEDGEVKFNWYVDGVEVHNAKTKPREEQYNSTYRVVSVLTVLHQDWLNGKEYKCKVSNKALPAPIEKTISKAKGQPREPQVYTLPPSRDELTKNQVSLTCLVKGFYPSDIAVEWESNGQPENNYKTTPPVLDSDGSFFLYSKLTVDKSRWQQGNVFSCSVMHEALHNHYTQESLSLSP
light: not shown
notes: human IgG1
B2: IL6R-BP483/IL6R-L (antibody, human IgG1, kappa, name in EU numbering)
heavy: B1 heavy with E235D, V268L, S269A
light: not shown
notes: human IgG1
B3: IL6R-BP484/IL6R-L (antibody, human IgG1, kappa, name in EU numbering)
heavy: B1 heavy with E235D, S269A, E271D
light: not shown
notes: human IgG1
B4: IL6R-BP479/IL6R-L (antibody, human IgG1, kappa, name in EU numbering)
heavy: B1 heavy with E235D, V266I, V268L, S269A
light: not shown
notes: human IgG1
B5: IL6R-BP481/IL6R-L (antibody, human IgG1, kappa, name in EU numbering)
heavy: B1 heavy with E235D, V266I, S269A
light: not shown
notes: human IgG1
B6: IL6R-BP269/IL6R-L (antibody, human IgG1, kappa, name in EU numbering)
heavy: B1 heavy with Y298D
light: not shown
notes: human IgG1
B7: IL6R-P700/IL6R-L (antibody, human IgG1, kappa)
heavy: B1 heavy with E235D, L236A, D239G, V266I, S269R, E441K
light: not shown
B8: IL6R-P646/IL6R-L (antibody, human IgG1, kappa)
heavy: B1 heavy with E235D, V266I, D267N, S269A, Y298D, A332R, P398M, E441K
light: not shown
B9: IL6R-P635/IL6R-L (antibody, human IgG1, kappa)
heavy: B1 heavy with E235D, D239G, V266I, S269K, E441K
light: not shown
B10: IL6R-P628/IL6R-L (antibody, human IgG1, kappa)
heavy: B1 heavy with E235D, D239R, V266I, S269A, E441K
light: not shown
B11: IL6R-P701/IL6R-L (antibody, human IgG1, kappa)
heavy: B1 heavy with E235D, L236N, D239G, V266I, S269R, E441K
light: not shown
B12: IL6R-P647/IL6R-L (antibody, human IgG1, kappa)
heavy: B1 heavy with E235D, V266I, D267R, S269A, Y298D, A332R, P398M, E441K
light: not shown
B13: IL6R-P651/IL6R-L (antibody, human IgG1, kappa)
heavy: B1 heavy with E235D, V266I, S269R, Y298D, A332R, P398M, E441K
light: not shown
B14: IL6R-P645/IL6R-L (antibody, human IgG1, kappa)
heavy: B1 heavy with E235D, V266I, D267K, S269A, Y298D, A332R, P398M, E441K
light: not shown
B15: IL6R-P632/IL6R-L (antibody, human IgG1, kappa)
heavy: B1 heavy with E235D, D239G, V266I, D267R, S269A, E441K
light: not shown
B16: IL6R-P634/IL6R-L (antibody, human IgG1, kappa)
heavy: B1 heavy with E235D, D239G, V266I, D267V, S269A, E441K
light: not shown
B17: IL6R-P639/IL6R-L (antibody, human IgG1, kappa)
heavy: B1 heavy with E235D, L236N, V266I, S269A, Y298D, A332R, P398M, E441K
light: not shown
B18: IL6R-P643/IL6R-L (antibody, human IgG1, kappa)
heavy: B1 heavy with E235D, D239R, V266I, S269A, Y298D, A332R, P398M, E441K
light: not shown
B19: IL6R-P640/IL6R-L (antibody, human IgG1, kappa)
heavy: B1 heavy with E235D, L236K, V266I, S269A, Y298D, A332R, P398M, E441K
light: not shown
B20: IL6R-P630/IL6R-L (antibody, human IgG1, kappa)
heavy: B1 heavy with E235D, D239G, V266I, D267K, S269A, E441K
light: not shown
B21: IL6R-P650/IL6R-L (antibody, human IgG1, kappa)
heavy: B1 heavy with E235D, V266I, S269K, Y298D, A332R, P398M, E441K
light: not shown
B22: IL6R-P648/IL6R-L (antibody, human IgG1, kappa)
heavy: B1 heavy with E235D, V266I, D267S, S269A, Y298D, A332R, P398M, E441K
light: not shown
B23: IL6R-P644/IL6R-L (antibody, human IgG1, kappa)
heavy: B1 heavy with E235D, D239K, V266I, S269A, Y298D, A332R, P398M, E441K
light: not shown
B24: IL6R-P649/IL6R-L (antibody, human IgG1, kappa)
heavy: B1 heavy with E235D, V266I, D267V, S269A, Y298D, A332R, P398M, E441K
light: not shown
B25: IL6R-P641/IL6R-L (antibody, human IgG1, kappa)
heavy: B1 heavy with E235D, L236R, V266I, S269A, Y298D, A332R, P398M, E441K
light: not shown
B26: IL6R-P697/IL6R-L (antibody, human IgG1, kappa)
heavy: B1 heavy with E235D, D239K, V266I, S269R, E441K
light: not shown
B27: IL6R-P633/IL6R-L (antibody, human IgG1, kappa)
heavy: B1 heavy with E235D, D239G, V266I, D267S, S269A, E441K
light: not shown
B28: IL6R-P696/IL6R-L (antibody, human IgG1, kappa)
heavy: B1 heavy with E235D, D239R, V266I, S269R, E441K
light: not shown
B29: IL6R-P638/IL6R-L (antibody, human IgG1, kappa)
heavy: B1 heavy with E235D, L236H, V266I, S269A, Y298D, A332R, P398M, E441K
light: not shown
B30: IL6R-P642/IL6R-L (antibody, human IgG1, kappa)
heavy: B1 heavy with E235D, G238Q, V266I, S269A, Y298D, A332R, P398M, E441K
light: not shown
B31: IL6R-P664/IL6R-L (antibody, human IgG1, kappa, N297A)
heavy: B1 heavy with E235D, D239G, V266I, S269A, N299A, E441K
light: not shown

Target: T1, FcγRIIb extracellular domain with …
Assay: SPR, antibody captured, FcgR analyte

Binder | Kd [nM]
B1 | 120
B2 | 78
B3 | 46
B4 | 56
B5 | 19
B6 | 110

Target: T5, FcγRIa extracellular domain with C-terminal His tag (human, UniProt P12314 16-292)
T5 construct: also called FcgRIa; CD64; not shown: His tag at the C terminus
Assay: SPR, antibody captured, FcgR analyte

T5 sequence (P12314 16-292): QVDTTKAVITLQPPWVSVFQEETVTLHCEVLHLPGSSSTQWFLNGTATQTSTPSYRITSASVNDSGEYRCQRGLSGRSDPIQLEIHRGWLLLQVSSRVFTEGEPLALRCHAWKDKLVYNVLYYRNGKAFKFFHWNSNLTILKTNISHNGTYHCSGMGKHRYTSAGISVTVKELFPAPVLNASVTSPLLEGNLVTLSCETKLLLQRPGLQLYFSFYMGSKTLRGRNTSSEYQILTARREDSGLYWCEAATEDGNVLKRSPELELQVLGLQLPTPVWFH

Binder | Kd [nM]
B1 | 10
B2 | 1.3
B3 | 0.82
B4 | 5.3
B5 | 1
B6 | 14

Target: T2, FcγRIIa R type extracellular domain …
Assay: SPR, antibody captured, FcgR analyte

Binder | Kd [nM]
B1 | 2000
B2 | 1300
B3 | 780
B4 | 900
B5 | 400
B6 | 2200

Target: T1, FcγRIIb extracellular domain with …
Assay: SPR; KD of IL6R-B3/IL6R-L divided by KD of variant

Binder | Relative FcgRIIb-binding Activity
B1 | 25.8
B2 | 39.6
B3 | 67.6
B4 | 55.3
B5 | 159
B6 | 27.3

Target: T2, FcγRIIa R type extracellular domain …
Assay: SPR; KD of IL6R-B3/IL6R-L divided by KD of variant

Binder | Relative FcgRIIaR-binding Activity
B1 | 0.5
B2 | 0.8
B3 | 1.4
B4 | 1.2
B5 | 2.7
B6 | 0.5

Target: T3, FcgRIIb
Assay: SPR, amount bound per captured antibody

Binder | Relative FcgRIIb-binding Activity [IL6R-G1d/IL6R-L=100]
B7 | 38.1
B8 | 175
B9 | 71.9
B10 | 176
B11 | 47.6
B12 | 15.2
B13 | 168
B14 | 13.7
B15 | 8
B16 | 6.5
B17 | 184
B18 | 178
B19 | 178
B20 | 7.1
B21 | 155
B22 | 152
B23 | 171
B24 | 6.9
B25 | 170
B26 | 28.7
B27 | 56.4
B28 | 73.7
B29 | 176
B30 | 175
B31 | 33.9

Target: T4, FcgRIIaR
Assay: SPR, amount bound per captured antibody

Binder | Relative FcgRIIaR-binding Activity [IL6R-G1d/IL6R-L=100]
B7 | 5.8
B8 | 72.5
B9 | 6.4
B10 | 48.1
B11 | 7
B12 | 5.6
B13 | 75.7
B14 | 5.2
B15 | 4.1
B16 | 2.8
B17 | 109
B18 | 58.7
B19 | 75.1
B20 | 4.1
B21 | 41.6
B22 | 40.3
B23 | 34
B24 | 2.9
B25 | 61.5
B26 | 3.6
B27 | 15.3
B28 | 6.1
B29 | 78.3
B30 | 103
B31 | 10.8
